Experiment: yeast display, Sf9 membrane polyspecificity reagent, FACS + sequencing; frameworks hold sequencing errors
How it was run: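 Using colony PCR, genes from sorted yeast display clones were amplified, then sequenced on MiSeq at 2 × 250 and filtered by CDR length. The clones had been stained with 10% biotinylated, detergent-solubilized Sf9 membrane reagent for 1 hour at 4 °C and sorted by FACS into low and high (top ~1%) gates on anti-HA and streptavidin fluorescence. Polyreactivity labels come from the gate of origin.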

| Sequence | polyreactivity (PSR sort gate) |
| --- | --- |
| QVQLVESGGGLVQAGGSLRLSCAASGRIFDYNAMGWYRQAPGKERELVASITQRGDITYYADSVKGRFTISRDNAKNTVYLQMNSLKPEDTAVYYCNADGVRVWVLPYVLYTGDYWGQGTQVTVSS | low polyreactivity |
| QVQLVESGGGLVQAGGSLRLSCAASGSISGLYAMGWYRQAPGKERELVARIRWRGDSTYYADSVKGRFTISRDNAKNTVYLQMNSLNPEDTAVFYCAASAYSGKVNKYNYWGQGTQVTVSS | high polyreactivity |
| QVQLVESGGGLVQAGGSLRLSCAASGRIFLYNAMGWYRQAPGKERELVAAISYNSGRTYYADSVKGRFTISRDNAKNTVYLQMNSLKPEDTAVYYCAAVSYPAVYGFDYWGQVTQVTVSS | high polyreactivity |
| QVQLVESGGGLVQAGGSLRLSCAASGSIIRWNAMGWYRQAPGKERELVAAISYSGGSTYYADSVKGRFTISRDNAKNTVYLQMNSLKPEDTAVYYCAKEYIVGFYLVFNRFDYWGQGTQVTVSS | low polyreactivity |
| QVQLVESGGGLVQAGCSLRLSCAASGRTIAYNAMGWYRQAPGKERELVAAISWSGGSTYYADSVKGRFTISRDNAKNTVYLQMNSMKPEDSAVYYCAKRFGQYRYPYDYWGQGNQVTVSS | high polyreactivity |
| QVQLVESGGGLVQAGGSLRLSCAASGITLKYYAIGWYIQAPGKERELVAAITRSGVGTYYADSVKGRFTISRDNAKNTVYLQMNSLKPEDTAVYYCAAASYQSRYWNYYWGQGTQVTVSS | high polyreactivity |
| QVQLVESGGGLVQAGGSLLLSCAASGGTFYYYAMGWYRQAPGKERELVASISSRGGSTYYADSVKGRFTISRDNAKNTVYLQMNSLKPEDTAVYYCAARSLYSGFGYWGQGTQVTVSS | high polyreactivity |
| QVQLVESGGGLVQAGGSHRLSCAASGGTYITNAMGWYRQAPGKERELVAAITSGGRTTYADSVKGRFTISRDNAKNTVYLQMNSLKPEDTAVYYCAADHVYSYTYNFDYWGQGTLVTVSS | low polyreactivity |
| LVQLVESGGGLVQAVGSLRLSCAASGFTIYGNAMGWYRRAPGKERELVAAITWRGGSTYYADSEKGRFTISRDNAKNTVYLQMNSLKPEDTAVYYCNALKGRPVRSYLASPSYRYDYWGQGTQVTVSS | high polyreactivity |
| QVQLVESGGGLVQAGGSLRLSCAASGSIFYENAMGWYRQAPGKEREFVATIDLIGDRTYYADSVKGRFTISRDNAKNTVYLQMNCLKPEDTAVYYCAAERVGVFFRYDYWGQGTQVTVSS | low polyreactivity |
| QVQLVESGGGLVQAGGSLRLSCAASGSIFVDYAMGWYRQAPGKERELVAAISWRGGSTYYADSVKGRFTISRDNAKNTVYLQMNSLKPEDTAVYYCAALTPFKYDYWGQGTKVTVSS | low polyreactivity |
| QVQLVESGGGLVQAGGRLRFSCAASGSTFRPNAMGWYRQAPGNERELVAAITRPGGSTFYADSVKGRFTISRDYAKHTVYLQMNSLKPEDTAVYYCATRQRVDLAPLARYGYWGQGTQVTVSS | low polyreactivity |
| QVQLVESGGGLVQAGGSLRLSCAASGRIFFYYVMGWYRQAPGKERELVAAITRSGGSTYYADSVKGRFTISRDNAKNTVYLQMNSLKPEDTAVYYCAVGDGFEYDWGQGTQVTVSS | low polyreactivity |
| QVQLEESGGGLVQAGGRLRLSCAASGSIFYVYAMGWYRQAPGKERELVASINKSGGSTYFADSVKGRFTISRDNAKNTVYLQMNSLKPEDTAVYYCAARTGWPRVGFQYPAHVGFDYWGQGTQVTVSS | low polyreactivity |
| QDQLVESGGGLVQAGGSLRLSCAASGSTLYAYAMGWYRQAPGKERELVAASRTGGSTYYADSLKGRFTISRDNAKNTVYLQMNSLKPEDTAVYYCAALYYHEYDYWGQGTQVTVSS | low polyreactivity |
| QVQLVESGGGLVQAGGSLRLSCGASGFTFYSYAMGWYRPARGKARELVATITKSGGNTYYADSVKGRFTISRDNAKNTVYLQMTSLKPVDTAVYYCAAATKVGRYKRKTVSYYYWCQGTQVTVSS | high polyreactivity |
| QVQLVESGGGLVQAGGSLRLSCAASGSIFVNNAMGWYRQAPGKERELVAAISSRSSRTFYADSVKGRFTISRDNAKISVYFHMNSLKPVDTGVYYWAVKKRSPHGDYCGQGTQVTVSS | high polyreactivity |
| QVQLVESRGGLVQAGGSLRLSCAASGSIFYRYARGWYRQAPGKERELVAAITYSGGRTYYADSVKGRFTISRDNAKNTVYLQMNSLKPEDTAVYYCAAEKQSYGSPQGYDYWGQGTQVTVSS | low polyreactivity |
| QVHLVESGGGLVQAGGSLRLSCAASGFIFDKYAMGWYRQAPGKERELVAAITDTGGNTYYADSVKGRFTISRDNAKNTVYLQMNSLKPEDTAVYYCNADYNDYQTYSATTYEYWGQGTQVTVSS | low polyreactivity |
| QVQLVESGGGLVQAGGSLRLICAASGSNFWGNTMGWYRQAPGKERELVATISRRGGSTNYADSVKGRFTISRDNAKNTVYLQMNSLKPEDTAVYYCAAVTIYRSYRGNPYYYWGQGTQVTVSS | high polyreactivity |
| QVQLVESGGGLVQAGGSLRLSFAASGRTFYGYAMGWYRQAPGKERELVASIRQSAGRTYYADSVKGRFTISRDISKNTVYLVMNSLKPEDSAVYYCAASIFLRSFYQQGNYWGQGTHVTVSS | high polyreactivity |
| QVQLVESGGGLVQAGGSLRLSCAASGYNFRQYAMGWYRQATGKEREFVAAISQTGGSTYYADSVKGRFTISRDNANNTVYLQMNSLKPEDTAVYYCAARYRGQRYRKLDYWGQGTQVTVSS | high polyreactivity |

| Sequence | polyreactivity (PSR sort gate) |
| --- | --- |
| QVQLVESGVGLVQAGGSLRLSCAASGFIFRKYTMGWYRQAPGKERELVATIDSSGGSTYYADSVKGRFTISRDNAKNTVYLQMNSLKPEDTAVYYCNADLRELSPWYWYSGEMDYWGQGTQVTVSS | low polyreactivity |
| QVQLVESGGGLVQAGGSLRLSCAASGRIYNPNGMGWYRQAPGKERELVAVITRSGTSTYYADSVKGRFTISRDNAKNTVYLQMNSLKPEDTAVYYCNAGKKYVDYGGPSSRYYWGQGTQVTVSS | low polyreactivity |
| QVQLVESGGGLVQAGGSLRLSCAASGFIFSYNAMGSYRQAPGKERELVAAISRRGGSTYYADSVKGRFTISRDNAKNTVYLQMNSLKPEDTAVYYCAAKSYLDSSGTFNYWGQGTQVTVSS | high polyreactivity |
| QVQLVESGGGLVQAGGSLRLSCAASGRIFAFYAMGWYRQAPGKEREFVAAITYSGGNTNYADSVKGRFTISRDNAKNTVYLQMNSLKPEDTAVYYCAAALVYGVYYQEDYWGQGTQVTVSS | low polyreactivity |
| QVQLVESGGGLVQAGGSLRLSCAASGRTFYYYAMGWYRQAPGKERELVAAISSSTGRTYYADSVKGRFTISRDNAKNTVYLQMNSLKPEDTAVYYCAKYRVFGYQFDYWGQGTQVTVSS | high polyreactivity |
| QVQLVESGGGLVQAGGSLRLSCAASGSTFSYNAMGWYRQAPGKERELVAAITSTGRTYYADSVKGRFTISRDNAKNTVYLQMNSLKPEDTAVYYCNKRARSEQYSYKYGYYYWGQGTQVTVSS | high polyreactivity |
| QVQLVESGGGLVQAGGSLRLSCAASGFIFYYYAMGWYIQAPGKERELVAAIDWDGDRTYYADSVKGRFTISRDNAKNTVYLQMNSLKPEDTAVYYCAAEWPVNFDYWGQGTQVTVSS | low polyreactivity |
| QVQLVESGGGLVQAGGSLRLSCAASGITFVRYAKGWYRHAPGKEREFVARISRSGASTYYADSVKGRFTISRDNAKNTVYLQMNSLKPEDTAVYYCNAVPGGSRFDYWGQGTQVTVSS | high polyreactivity |
| QVQLVESGGGLVQAGGSLRLSCAASGRTLQSYAMGWYRQAPGKERELVAAITSTGTTYYADSVKGRFTISRDNAKNTVYLQMNSLKPEDTAVYYCAAGGSIVLGHYHYVKMYYWGQGTQVTVSS | high polyreactivity |
| QVQLVESGGGLVQAGGSLRLSCAASGRIFYQNTMGWYRQAPGKEREFVARINWSGGSTYYADSVKGRFTISRDNAKITVYLQMNSLKPEDTAVYYWAKASQSWGRDDYYYWGQGTQVTVSS | low polyreactivity |
| QVQLVESGGGLVQAGGSLRLSCAASGRTISHNVMGWYIKAPGKERELVAAISRNGGRTYYADSVKGRFTISRDNAKNTVYLQMNSLKPEDTAVYYCAKRRSYFLHSYYSYGYWGQGTQVTVSS | high polyreactivity |
| QVQLVESGGGLVQAGGSLRLSCAASGFIFTFYAMGWYRQAPGKEREFVASIDWGDGSTYYADSVKGRFTISRDNAKNTVYLQMNSLKPEDTAVYYCAHDYDGYVWDTEYDYWGQGTQVTVSS | low polyreactivity |
| QVQLVESGGGLVQAGGSLRLICAASGYTLATYTMRWYIQAPGKERELVAAISFGGSTYYADSVKGRFTISRDNAKNTVYLQMNSLKPEDTAVYYCAVYGDSYWGAYYYSDGYWGQGTQVTVSS | low polyreactivity |
| QVQLVESGGGLVQVGGSLRLSCAASGRTFWWYAMGWYRQAPGKERELVAAITRSGGSTYYADSVKGRFTISRDNAKYTVYLQMNSLKQEDTAVYYCAASHYGLLEYWGQGTQVTVSS | low polyreactivity |
| QVQLHESGGGLVQPGGGLRLSCAPSGSISSTGFMGWNRKAPGKEREPVAAIAPGTTTYYADSVKGRFTISRDNAKNTVYLQMNSLRPEDTAVYYCAVFTDNRVAFLYWGQGTQVTVSS | low polyreactivity |
| QVQLVESGGGLVQAGGSLRLSCAASGSTFGGYTMGWYRQAPGKERELVAAISRRGGSTYYADSVKGRFTISRDNAKNTVYLQMNSLKPEDTAVYYCAALYVYRPRTPYGYWGQGTQVTVSS | high polyreactivity |
| QVQLVESGGGLVQAGGSLRLSCAASGIIFRYAMGWYRQAPGKERELVARITVGSTYYADSVKGRFTISRDNAKNTVYLQMNSLKPEDTAVYYCAARVQHYLATDDYWGQGTQVTVSS | low polyreactivity |
| QVHLVESGGGLVQEGGSLRLTSAASGITFVRNTLGWYRQAPGKERELVAAIDSGGNTYADSVKGRFTITRDNAKNTVYLQMNSLKPEDTAVYFCAVDGGEVSSYGYWGQGTQVTVSS | low polyreactivity |
| QVQLVESGGGLDQAGGRLRLSSAASGTTFAVNAMGWYRQAPGKERELVAAITSGGSTKYADSVKGRFTISRDNAKYSVYFQMNSLKREDSAVYYIPDSKLWALGWKFYYWGQGTQVTVSS | low polyreactivity |
| QVQLVESGGGLVQAGGRLRLSCAASGIIFVVNDMGWYRQAPGKEWELVADISDSGGSTNYADSVKGRFTISRDKAKNTVYLQMNSLKPEDTAVYYCAADSADPTEYDYWGQGTQVTVSS | low polyreactivity |
| QVQLVESGGGLVQAGGSLRLSCAASGRTSYTNAMGWYRQAPGKERELVAAINYSGGSTYYADSVKGRFTISRDNAKNTVYLQMNSLKPEDTAVYYCAADWDWWYQEFDYWGQGTQVTVSS | high polyreactivity |

Source: the nanobody polyreactivity screen of Harvey et al. (2022)
